Target: HSV1(F) viral capsids treated with 0.5 M KCl (HSV1 strain F) (UniProt P10219)
Assay: immunoelectron microscopy (immunogold labelling of capsids, negative staining); capsids incubated with […] pig brain cytosol, adsorbed on grids, labelled with antibodies against MAP subunits and protein-A gold; gold per mono-disperse capsid counted, labelling of capsids in buffer subtracted as background

UniProt P10219, sequence (P10219 whole entry, looked up): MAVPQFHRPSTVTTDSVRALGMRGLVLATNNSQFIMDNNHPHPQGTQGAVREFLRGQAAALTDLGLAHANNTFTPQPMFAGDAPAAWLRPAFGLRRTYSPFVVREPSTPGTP

Substance | gold particles per capsid above background | percent of capsids with two labels | percent of capsids with more than one complex, background taken into account
kinesin-2 of pig brain cytosol (complex) | 0.5 gold/capsid | 8% | –
kinesin-1 of pig brain (complex) | 0.5 gold/capsid | 20% | 10%
cytoplasmic dynein of pig brain cytosol (complex) | 0.75 gold/capsid | 40% | 20%
